Legend:
[1] = molecular target: CXCR4 (chemokine receptor CXCR-4) on PM1 cells; test: flow cytometry, PE-conjugated isotype control on PM1 cells (non-specific fluorescence)
[2] = test system: Rev peptide (Rev34-50, RhdRev) (HIV-1); test: FP; settings: 10 nM tracer titrated with RNA, 85 mM NaCl, 2 mM KCl, 0.5 mM CaCl2, 0.5 mM MgCl2, 10 mM HEPES pH 7.5
[3] = test system: Tat49-57 peptide (HIV-1); settings: CITED natural ligand affinity quoted for comparison, method not stated; cited from earlier work
[4] = test system: Rev34-50 peptide (HIV-1); settings: CITED natural ligand affinity quoted for comparison, method not stated; cited from earlier work
[5] = molecular target: CXCR4 (chemokine receptor CXCR-4) on PM1 cells; test: flow cytometry, PE-12G5 alone on PM1 cells, 30 min at 4° C.

Chain of CXCR4 (chemokine receptor CXCR-4) on PM1 cells (P61073 whole entry): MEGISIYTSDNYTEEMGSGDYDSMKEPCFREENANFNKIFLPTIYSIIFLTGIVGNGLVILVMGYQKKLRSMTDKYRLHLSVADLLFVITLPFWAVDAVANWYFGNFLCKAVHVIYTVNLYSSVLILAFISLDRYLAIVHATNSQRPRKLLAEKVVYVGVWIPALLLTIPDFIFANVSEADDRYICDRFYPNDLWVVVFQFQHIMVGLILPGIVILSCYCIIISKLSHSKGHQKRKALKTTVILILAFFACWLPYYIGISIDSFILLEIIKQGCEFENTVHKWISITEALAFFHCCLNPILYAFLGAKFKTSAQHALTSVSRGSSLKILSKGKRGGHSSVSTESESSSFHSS

Question: With “PE-conjugated isotype control mAb (antibody)” as the substance, how does the MFI (median fluorescence intensity) [1] read?
Answer: 30 MFI

Question: Which Kd ([2]; table unit taken from text (7 nM)) does the source give for TAR RNA here?
Answer: 7.3 nM

Question: And the Kd [3]?
Answer: 12 nM

Question: With RRE IIB RNA as the substance, how does the Kd ([2]; text gives 16 nM) read?
Answer: 16.6 nM

Question: And the Kd [4]?
Answer: 40 nM

Question: For “anti-CXCR4 mAb, 12G5 (PharMingen, San Diego, Calif.) conjugated to phycoerithrine (PE) (antibody)”, which MFI (median fluorescence intensity) [5] is on record?
Answer: 451 MFI

Reference: patent US20040229265A1
